The DeepSol protein solubility set

test: soluble on expression in E. coli; label from the status in PepcDB or PDB records

Sequence	soluble on expression in E. coli
MKRAPFLCKQSPDRTLEVVILAGSLAWETSRVWRKDPDREDDVPPMVLGPNELADLSNLTIIRPDTLYVRVLRTGDISEEDLLKIAVKLAHAGVQMARLMSPDGELLENWTGQLERLRQERPSDILPDHFRLDEEALWFDKLTERRDGESDVQPQRICSPLRVTAITCDSHDGSYGRLLEWHTTTGQLRRWAMPMAMLSGNGEELRRILLENGLTNISTRPALRSLLCEYISRSLPGRRVTCVEKTGWHNGVYVLPDEVIGPDGDNVILQGSHYLTGGFAQAGTLAEWQEQVAALCAGNSRLVFAVCCALAAPLLRLTGTGGGGFHLRGESTDGKTTVMKVAASVCGGTDYWHSWRATGNALEGIASRHNDALLPLDELREVDPREAGMIAYMLANGQGKGRARTDGEVRNRRHWTLLLEHHHHHH	not soluble
METLSNIQCFVRSAEAGSFAEAARRLGLTPAGVGKNVARLESNLGVRLFQRSTRRLTLTEAGERFLQEVGGSLEGIQTALANVSSVGNQPSGTLKVSMGLAFGRDYILPLLGEFLERYPDIVPDWHFDNRQVDLIGEGFDAAIGGGFELPPGVVARNLTPGHLILLASPTYLRDKPPIRHPGDLGGFDGIRIRSPQTGRVRSWPLRRRNGEEAPIELRERMTMSDPEATCEVAAMGLGITLVCMQHAYAYLESGALVRVLPDWYVDAGNTSLYYAANKLLPAKTRVFVDFVVDYFRRQDLARRFSAFPTG	not soluble
NAQARFSQNLLDQGSHPTSEKLLSVLRPASGHVADALGITEGENVIHLRTLRRVNGVALCLIDHYFADLTLWPTLQRFDSGSLHDFLREQTGIALRRSQTRISARRAQAKECQRLEIPNMSPLLCVRTLNHRDGESSPAEYSVSLTRADMIEFTMEH	soluble
SIERLGYLGFAVKDVPAWDHFLTKSVGLMAAGSAGDAALYRADQRAWRIAVQPGELDDLAYAGLEVDDAAALERMADKLRQAGVAFTRGDEALMQQRKVMGLLCLQDPFGLPLEIYYGPAEIFHEPFLPSAPVSGFVTGDQGIGAFVRCVPDTAKAMAFYTEVLGFVLSDIIDIQMGPETSVPAHFLHCNGRHHTIALAAFPIPKRIHHFMLQANTIDDVGYAFDRLDAAGRITSLLGRHTNDQTLSFYADTPSPMIEVEFGWGPRTVDSSWTVARHSRTAMWGHKSVRGQR	soluble
MPSGVCEPKERSPCMNKIDKLDKELEKAREKAAEWQAKIRELEKQKQEEENSQIVQAVRSLKLTPAQLMAFLNDPKNSLTASGHTDPKPEAPEKEDTAHEEN	not soluble
MRGSHHHHHHGSVEYTPWLIAGLGNPGNKYYGTRHNVGFEMVDRIAAEEGITMNTEQSKSLLGIGSIGEVPVLVVKPQSYMNYSGEAIGPLAAYYQVPLRHILLIYDDTSLPNGVLRLQKKGGHGRHNGLQNVIEHLDGRREFPRLSIGIGSPPGKMDPRAFLLQKFSSEERVQIDTALEQGVDAVRTLVLKGFSGSTERFNLVQKYKFHRV	soluble
MKQTNPFVYSNDNKRYHTWNYCLREEFGQKTYKVALDGGFDCPNRDGTVAHGGCTFCSAAGSGDFAGNRALDLKVQFQQVRDKMQTKWKDGKCIAYFQAFTNTHAPVAELREKFETVLNEPGVVGLSIATRPDCLPDDVVEYLAELNERTYLWLELGLQSAHDETGRLINRAHDYDCYLEGVRKLQKHNIRICTHIINGLPKETPEMMMETAQKVVESGVDGIKIHLLHLLKGTPMVEDYKKGDLEFLTRDGYVNLVADQLEILPPEMVIHRITGDGGVDDLIGPVWSLNKFEVLNAIDAELVRRDSWQGKLYQPVEVSSK	not soluble
MNSAHRSSLKKRPGPQDDRRVSFASPVSSSQKTAAVTVAAQTKQPAKAKNLRTMHSTPKKSKPAHDVADIISLVSKQSDILDDVSEIEHKMIKQAKMTQDLTMELANSIERIANMALAESKLSDQMEKQSKKLISLEGKTKELVEKANNWSKTLENRVDARSHHSTCLNDVQAAIKIINNAKINNDGFSEDFSAHYDKLLDLVETLEPWADKL	soluble
MSLSSGGGQFIKPASGILTSGFSERTNPVTGKYESHKGQDIAGGGTVTVSAAASGTVVFSGFGASGSGFGGYGYVVKIDHGNGFQTLYGHMRAGSLKVVTGQQVSQGQPIGIMGSTGQSTGQHLHFEIHKNGIPVDPAPYIEGHHHHHH	soluble
MRECISIHVGQAGVQIGNACWELYCLEHGIQPDGQMPSDKTIGGGDDSFNTFFSETGAGKHVPRAVFVDLEPTVIDEVRTGTYRQLFHPEQLITGKEDAANNYARGHYTIGKEIIDLVLDRIRKLADQCTGLQGFSVFHSFGGGTGSGFTSLLMERLSVDYGKKSKLEFSIYPAPQVSTAVVEPYNSILTTHTTLEHSDCAFMVDNEAIYDICRRNLDIERPTYTNLNRLIGQIVSSITASLRFDGALNVDLTEFQTNLVPYPRAHFPLATYAPVISAEKAYHEQLSVAEITNACFEPANQMVKCDPRHGKYMACCLLYRGDVVPKDVNAAIATIKTKRTIQFVDWCPTGFKVGINYEPPTVVPGGDLAKVQRAVCMLSNTTAIAEAWARLDHKFDLMYAKRAFVHWYVGEGMEEGEFSEAREDMAALEKDYEEVGVDSVEGEGEEEGEEY	soluble
MPRAVAERGDVVPVLAEVFRSHGFDGASLAVITEHTGLGKGSLYNFFPRGKDEMAEAVLDEVDAWFQTAVYLPLRGSEPAAARLERMFDEVETYFRSGRRICLFGAFALGLERDRFADRVRAYFTDWVDSLAGALADAGHGRPSRPLAEEVVAGIQGALVLARALDDPDSFTRILTRLRRSVGDPTTSRA	soluble
MSRLATLTWTSYRRGYTEIVTSAGLEVVFEPGDEWNSHDREYQQARLEVEGRGESGDGTVRTRTQALLRWQFKIKDGTVKRLPEADFTREVLVAVRLAIKDYRSQSSELRQKYFGPGFAMGG	not soluble
MSKTHPPELKKYMDKEMDLKLNGNRRVSGILRGFDPFMNMVIDEAVEYQKDGGSVNLGMTVIRGNSVVIMEPKERIS	not soluble
MTQDPHQTADILIIGGGLSGSMLAAQLLRRPGQRRILIIETRSELGRGEAYSATEPGHTLNGNAARMSVDPDNAHDLTEWLTGYLAEGGWPEAAEQKIPVAELFPPRGVFGLYVQQRLREAQVVGEGFGSTVGHVRAEAVDVQVSEQGVSVTLADGRELRGSQAVLATGMYAASRTPQRESNALNAASLDPWDVSVMQQLDPQTRVLIIGSGLTMVDALVSLEKAGHRGPIQVFSRHGLLPHVRRQPPEWSDFLAQDPSIRSTRQLVRKVREQCELAIESGIDWQAPLDTVRANVGRLWNQATDTQRRQFVRHVRPWWESHHHRSPPPSAALLARLVKQGRLSIEAASLQGVASLPSGQVQISVRRRGEHEPTHILGDALINSTGIEYDWRRVDRPLPRQLLARGLIQPGPLALGIAAAHDGAVLDAQGQRSAHLFAMGPPLRGMWWESTAVTDVAIQAKALAMRLALEHHHHHH	soluble
MGSDKIHHHHHHMARKRDDAALHLPLPEERQVTAFLQAHPDFLVRHPDLLLSLSPPSRWADDDGVLDMQVFMIDRLRDEVERVRGAAEHLIHTSRSNMSIQTRTHRAVLSILGAESMAELVEAISDDLPALLDVDVATLCFEKSEEALPDLLAPGILTLPGGTVAQIMGGADRDCALTEEMPGDPALFGDGAGLVQSSAVVRLSPGGKSPDGVMALGSRHGRTFHAGQATELITFLARVVEGSVRRFVG	not soluble
RPPLQEYVRKLLYKDLSKVTTEKVLRQMRKLPWQDQEVKDYVICCMINIWNVKYNSIHCVANLLAGLVLYQEDVGIHVVDGVLEDIRLGMEVNQPKFNQRRISSAKFLGELYNYRMVESAVIFRTLYSFTSFGVNPDGSPSSLDPPEHLFRIRLVCTILDTCGQYFDRGSSKRKLDCFLVYFQRYVWWKKSLEVWTKDHPFPIDIDYMISDTLELLRPKIKLCNSLEESIRQVQDLEREFLIKLGLVN	soluble
MSSQVSTSRGLPSPSKLGTFESPHTWQMSGPTGQAEAGSSDDQDIRLLSVSWNQDFGCFAAGTSNGFRIFNCDPFKETFRRDLKSGGFGIVEMLFRCNILALVGGGSNAHYPPNKVMIWDDHRSHCIGEFAFRSDVRAVKLGKDYIVIVLERKIYVYNFTDLKLLHQIETQSNPKGLCCLSHHSNTSVLACPGVHQGHVRVEHFGLKVTRMISAHDSHISCMALTMDGLLLATASMKGTLIRIFNTMDGTRLQEVRRGLDKADIYSIALSPNVQWLAVSSDKGTVHIFSLRVRVAGEDASNEQRSLEGPRMDHQNSSSSIDPLIQTNTGSNASSSLSFMKGILPKYFSSEWSFAQFHLPEVTRYIVAFGAQNTVMMVGLDGSFYRCSFDQVNGGQMLQKEYFRFIKADLTPLRTSAP	not soluble
MKVCKFEKMKEEDEIRQVINYILKEHPYVVVVPTLTQLQEWLQDISISWFHEEDSASHTTINNIEEYCCTLADHLITDLPLNTDIKKYIRECIEKMHKLVEDKADLLIDKIIKAEIYRLSGELFACCLRQHGLNARTLDTGTFMQMNLERKPDIPYIQESIRQYINENRDTDIFIAPLSLCKNVYGEIDFMNEKRNDYYATVLASIFEADEIILSTELTNIYANRNCAREQHSLTYTEAEQLINSGVHLIYTDCITLAARSNIVIRLIDTHDLETERLYISSHDTESSVKAIIVQDSVTFVRFTSLNVLPGYLLMGKLLEVINKYQINVISMASSNVSVSMILTASRDTLRIIQRELHKYTEMVVDENMSVIHIIGSLHWERTQLESNIMETIRHIPISLISYGGSDHCFTISVHTADKKQLLNSLSQRFLERLSALEHHHHHH	not soluble
MKILRFNEGRWGVLEGELVLETDGPGGNPTGRRYDLASVTLLPPATPTKIVCVGRNYREHIREMGHDFGEDLPKEPGLFLKGPNALARPGNPRDPWGTAEPVPYPFFTEELHYEGELAVVVGDRMRHVPPEKALDHVLGYTVAVDITARDVQKKDLQWVRAKSADKFLPLGPWLETDLNPQDTWVRTYVNGTLRQEGHTSQMIFSVAEILSYISTFMTLEPLDVVLTGTPEGVGALRPGDRLEVAVEGVGTLFTLIGPKEERPW	soluble
MGSDKIHHHHHHMIIVAGTPGAGKTSVMTHTIKQLLNKGNKPAVVKIDCLYTDDDTRYGKLKIPTLVGLSKDMCPDHFAIYNLEEMAEWAEKEGVDTLIIETAGLCHRCAPYTKNSLGICVIDATSGPNTPRKVGPFLTSADVVAITKGDIISQAEREVFRERVLEMNPKCTIYDVNGLSGQGCAEISEEIMEAKDIVDLENEELRHNAPLCVCTLCVGETKVAKKHHRGVLRRIDGFTKYVGE	not soluble
MAHHHHHHMLHNDKKNPREALDEEKPRKSNPGEVGTHRKARDTKGNKNKSGEGHITKVEGKADCEPHDVKRKGEKDKVLIQCKELQRKELEALKLIYVKDKELAIQNENDEKRDTIIHMHLNDENISDNVINLTFELPKDYPLKSFLLININVKNFTPDMNNYVNQEVYKDMPNYIAHENSILSIIYRINELVENIQNRKETLVDQSYSSSEEREENAEEEAFDSSKDQLIKDHVTFLYCSGMTYSQHRRVLARRLCYSHHILSLVKRTCIIKWAKELKIGGYSKIGYPGIIICEGPKEEVDFYINSLNKLRWKHFDCRGMDDIILKEYEDLDDARVLPKTMYELDPKGMSTLSNICTECGLRDLFLTSMKIYHS	not soluble
